Test results published in the nanobody polyreactivity screen of Harvey et al. (2022).

Assay: yeast display, Sf9 membrane polyspecificity reagent, FACS + sequencing; frameworks hold sequencing errors
Method in brief: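 Galactose-induced (36–48 hours) yeast carrying a synthetic nanobody display library were exposed to 10% biotinylated, detergent-solubilized Sf9 membrane reagent at 4 °C for 1 hour. FACS followed streptavidin microbead enrichment, using low and high (top ~1%) gates for expression (anti-HA) and reagent binding (streptavidin). Colony PCR, MiSeq 2 × 250 sequencing and CDR-length filtering followed. Labels for polyreactivity reflect the gate of origin.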

Row | Sequence | polyreactivity (PSR sort gate)
1 | QVQLVESGGGLVQAVGSLLLSCAASGSTFRYNAMGWYRQAPGKEREFVATISWTTGSSYYADSVKGRFTISRDNAKNTVYLQLNSLKPEDTAFYFCAADASLFSDFRDYDYWGQGTQVPVSS | low polyreactivity
2 | QVQLVESGGGLVQAGGSLRLSCAASGFIFQAYAMGWYRQAPGKERELVAAISSSGGSTYYADSVKGRFTISRDNAKNTVYLQMNSLKPEDTAVYYCAARSRRVSLIRDSYGYWGQGTQVTVSS | high polyreactivity
3 | QVQLVESGGGLVQAGGSLRLSCAASGIIFASNAMGWYIQAPGKERELVATINWTDSTTYYADSVKGRFTISRDNAKNNVYLLMNSLKPEDTAGYYCNAVPHWFYRYGRYDYWGQGTQVTVSS | low polyreactivity
4 | QVQLKESVGGLVQAGGILRLSCAASGNIFPTDRMAWYRQAPGTELEFVATISHGGSTNYADSVKGRFTISRDNSKNTLYLQMNSLKPEDTAVYYWWGWSLGRWRHYYWGQGTQVTVSS | low polyreactivity
5 | QGHLVESGGGLVQAGGSLRLSCAASGITLTRYAMGWYRQAPWKERELVAAISTGGGSTYYADSVKGRFTFSRDNAKNTVYLQMNSLKPEDTAVYYCAARIRFARGYPITRTYDYWGQGTQVTVSS | high polyreactivity
6 | QVQLQESGGGLVQAGGSLRPSCAASGSISDGVRMGWYRQAPGEEGELVATTVLGATTNYADSVKGRFTISRGNAKNTVYLLMTSLKAEATAVYYCAAPLRYDKGFSYWGQGTQVTVSS | low polyreactivity
7 | QVQLVESGGGIVQAGGSIRLSCAASGRIFRYYAMGWYRQAPGKERELVATISRSGGSTFYAESVKGRFTISRDNAKNTVYLQMNSLIPEDTAVYYCNARYQTGGYGYWGQGTQVTVSS | high polyreactivity
8 | QVQLVESGGGLVQAGGSLRVSCAASGIIFRYNAMGWSRQAPGKESELVAAITSGGITKYADSVKGRFTISRDNAKNTVYLQMNSLKPEDTAVYYCNAEYGFDRAGSRGEYWGQCTQVTVSS | low polyreactivity
9 | QFQLVESVGGLVQAGGSLRLSCAASGFTFPSYAMGWYRQAPGKERELVAAISYRGGRTYYADSVKWRFTISRDNAKNTVYLQMNSLKPEDTAVYYCNALFATVPPWGFDYWGQGTQVTVSS | high polyreactivity
10 | QVQLVESGGGLVQAGGSLRLSCAASGSIFYLYAMGWYRQAPGKERELVAGIRYRGGSTYYADSVKGRFTISRDNAKNTVYLQMNSLKPEDTAVYYCAAEYGDGRYWSYDYWGQGTQVTVSS | high polyreactivity
11 | QVQLVESGGGLVQAGGSLRLSCAASGIIFGRYDMGWYRQAPGKERELVAAITWSGGTTYYADSVKGRFTISRDNAKNTVYLQMNSLKPADTAVYYCNAVGRYSEDGYWGQGTQVTVSS | high polyreactivity
12 | QVQLLESGGGLVQAGGSLGCAASGNISTRSEMGWYRQAPGKEREFVATINSGGITNYADSVKGRFTISRDNENNTVYLGMNSLKPEDTAVYYRAVYVYFSDPYDYWGQGTQVTVSS | low polyreactivity
13 | QFQLVESGGGLVQAGGSLRLSCAASGSIFDRNAMGWYRQAPGKERELVAAITSGGSTYYADSVKGRFTISRDNAKNTVYLQMNSLKPEDNAVYYCNADTDPPVPLYYWGQGTQVTVSS | low polyreactivity
14 | QVQLVESGGGLVQAAGSLRLSCAASGRTFRAYAMGWYRQAPGKERELVAAISNRGTRTYYADSVKGRFTISRDNAKNTVYLQMNSLKPEDTAVYYCAAGNRVNRFDYWGQGTQVTVSS | high polyreactivity
15 | QVQLVESGGGLVQAGGSLRLSCAASGSTIGDNAMGWYSQAPGKERELVASISWSGASTYYADSVKGRFTISRDNAKNTVYLQMNSLKPEDTAVYYCAVYYSYYSHLYHLLFYYWGQGTQVTVSS | low polyreactivity
16 | QVQLVESGGGLVQAGGSLRLSCAASGRTFYPYVMGWYRQAPGKERELVATISWSGGSTYYADSVKGRFTISRDNAKNTVYLQMNSLKPEDTAVYYCAALWPYGYWGQGTQVTVSS | low polyreactivity
17 | QVQLVESGGGFVQAGGSLRLSCAASGSTLPYYAMGWYRQAHGKERELVADITARGGTYYADSVKGRFTISRDNAKNTVYLQMNSLKPEDTAVYYCAAAYSLWQFYWDQGYDYWGQGTQVTVSS | high polyreactivity
18 | QVQLVESGGGLVQAGGSLRLSCAASGSTFYAYDMGWYRQAPGKERELVAAISSGGSTYYADSVKGRFTISRDNAKNTVYLQMNSLKPEDTAVYYCAPEYTYELEASEPSDYDYWGQGTQVTVSS | low polyreactivity
19 | QVQLVESGGGLVQAGGSLRLSCAASGSTFYSNVMGWYRQAPGKERELVAAISQSGGRTFYADSVKGRFTISRDNAKNTVYLQMNSLKPEDTAVYYCNNVRAQPRNPYDYWGQGTQVTVSS | high polyreactivity
20 | QVQLVESGGGLVQAGGSLRLRCAASGSTFINNAMGWYRQAPGKERELVAAISGSGVSTYYADSVKGRFTISRDNAKNTVYLQMNSLKPEDTAVYYCNKRYRNYFWYKPYSTKYEYWGQGTQVTVSS | high polyreactivity
21 | QVQLVESGGGLVQAGGSLRLSCAASGYIFPKNAMGWYRQAPGKERELVAAITGSGGSTYYADSVKGRFTISRDNAKNTVYLQMNSLKPEDTAVYYCAKRSWIEYDYWGQGTQVTVSS | low polyreactivity
22 | QVQLVESGGGLVQAGGSLRLSCAASGRIFYLNVMGWYRQAPGKERELVAAITRRDVTTYADSVKGRFTISRDNAKNTVYLQMNSLKPEDTAVYYCNAVYYNWIGFDYSGQGTQVTVSS | low polyreactivity

Row | Sequence | polyreactivity (PSR sort gate)
23 | QVQLVESGGGLVQAGGSLRISCAASGRTCNHYTMGWYRPAPGKERELVAAITSGGSTYYADSVKGRFTISRDNAKNTVYLQMNSLKPEDTAVYYCARVRPLYHYSRYDYWGQGTQVTVSS | high polyreactivity
24 | QVQLVESGGGLVQAGGSLRLSCAACVRTFSGYAMGWYRPAPGKERELVAAIRWSGGSTYYADSVKGRFTISRDNAKNTVYLQMNSLKPEDTAVYYCATRDYYYRYGYWGQGTQVTVSS | high polyreactivity
25 | QVQLVESGGGLVQAGGSLRLSCAASGSIFYGYTMGWYRQEPGKERELVAAIRKSGGSTNYADSVKGRFTISRDNAKNTVFLQMNSLKPEDTAVYYCAAAYYRGRGYYWGQGTQVTVSS | high polyreactivity
26 | QVQLVESGGGLVQAGGSLRLSCAASGIIFAVYTMGWYRQARGKERELVAALSSGGSTYYADSVQGRFTISRDNAKNTVYLQMNSLKPEDTAVYYCNAQYFWLWLTYDFDYWGQGTQVTVSS | high polyreactivity
27 | QVQLVESGGGLVQAGGSLRLSCAASGRIFVPYTMGWYRQAPGKERELVAAISRSGGSTYYADSVKGRFTISRDNAKNTVYLQMNSLKPEDTAVYYCAARATNVYSKMDYWGQGTQVTVSS | high polyreactivity
28 | QVHLVESGGGLVQAGGSLRLSCADSGTTFHKYAMGWYRQAPGTERELVARISVGGDSTYYADSVKGRFTISRDNAKNTDYLQIISLKPEDTAVYYCAKVRYLVFLYPPRYYYWGQGTEVTVSS | low polyreactivity
29 | QDQLVESGGGLVQAGGSLRLSCAASGLIFSYYAMGWYRQAPGKERELVAAIDWISGSKYYADSVKGLFTISRDNAKNTVYLQMNSLKPEDTAVYYCAAYGSFWYARFGYCGQGTQVTVSS | low polyreactivity
30 | QVQLVESGGGLVQAGGSLRLSCAASGLIFSSYVMGWYRQAPGKERELVAAISSKGGSTYYADSVKGRFTISRDNAKNTVYLQMNSLKPEDTAVYYCAARVYYPVRYGYWGQGTQVTVSS | high polyreactivity
31 | QVQLVESGGGLVQAGGSLRLSCAASGSIFGAYAMRWYRQAPGKERELVAAISYGGGNTYYADSVKGRFTISRDNAKNTVYLQMNSLKPEDTAFYYCNALFPRVSGSTYRYNYWGQGTQVTVSS | high polyreactivity
32 | QVQLVESGGGLVQAGGSLRLSCAASGFTFYSYDMGWYRQAPGKERELVAAITWSGGSTYYADSVKGRFTISRDNAKNTVYLQMNSLKPEDTAVYYCAAELFPLQHFWVAYATRRYDYWGQGTQVTVSS | low polyreactivity
33 | QVQLEESGGGLVQAGGRLRLSCAASGSIFGFYAMGWYRQAPGKERELVASITISGGSTYYADSVKGRFTISRDNAKNTVYLQMNSLKPEDTAVYYGAARRYWDYNYWGQGTQVTVSS | low polyreactivity
34 | QVQLVESGGGLVQAGGSLRLSCAASGSIFRRNSMGWYRPAPGKERELVAAISSIGSSTYYADSVKGRFTISRDNAKNTVYLQMNSLKPEDTAVYYCAALYVQGSHTYGYWGQGTQVTVSS | high polyreactivity
35 | QVQLVESGGGLVQAGGSLRLSCAASGFIFDFYAMGWYRQAPGKERELVADITGGGSTYYADSVKGRFTISRDNAKNTVYLQMNSLKPEDTAVYYCAASYGVYWYSFWYHVAWYDYWGQGTQVTVSS | low polyreactivity
36 | QVQLVESGGGLVQAGGSLRLSCAASGSIFWYYAMGWYRQAPGKERELVAAISRSGGSTYYADSVKGRFTISRDNAKNTVYLQMNSLKPEDTAVYYCAAGYSSLRRFGVYYWGQGTQVTVSS | high polyreactivity
37 | QVQLVESGGGLVQAGGSLRLSCAASGSTFINYAMGWYRQAPGKERELVAAYADSVKGRFTISRDNAKNTVYLQMNRLKPEDTAVYDCNAVTGECGQGTQVTVSS | low polyreactivity
38 | QVQLVESGGGLVQAGGSLRLSCAASGRIFTIYAMGWYRQAPGKERELVAAITRGGNTNYADSVKGRFTISRDNAKNTVYLQMNSLKPEDTAVYYCAARANVYTKKRDYWGQGTQVTVSS | high polyreactivity
39 | QLQLEESGGGLVQAGASLPLSCAASGLTFVEYAMGCYRQAPGKEREFVAAIRSRGGSTYYADSVKGRFTISRDNAKTTVYLQMNSLKPEDTAVYYCNADGYFWGQGTQVTVSS | low polyreactivity
40 | QVQLVESGGGLVQAGGSLRLSCAASGRILTFYGLGWYRQAPGKERELVAAISNGGSTYYADSVKGRFTISRDNAKNTVYLQMNSLKPEDTAVYYCAKRILTAPRRNSGYDYWGQGTQVTVSS | low polyreactivity
41 | QVQLVESGGGLVQAGGSLRLSCAASGRIFYSYAMGWYRQAPGKERELVAAIRRGGSTNYADSVKGRFTISRDNAKKTVYLQMNSLKPEDTAVYYCAAKGYKGYFLYNYWGQGTQVTVSS | high polyreactivity
42 | QVQLVESGGGLVQARGTLRLSCAASGFTVFSYAMGWYRQAPGKESELVASISGSSSTYYADSVKGRFTISRDNAKNTVSVQMNSLTPDDTAVYYCAVDYHQAWPSGDYWFEYDYWGQGTQVTVSS | low polyreactivity
43 | QVQLVESGGGLVQAGGSLRLSCAASGRTFPFNVMGWYRQAPGKERELVAAISSGGSTNYADSVKGRFTISRDNAKNTVYLQMNSLKPEDTAVYYCAAYSVYGRYGRTFYYWGQGTQVTVSS | high polyreactivity
